Experimental data from patent US5834244.

Legend:
[1] = biological target: human Factor XIa (human) (UniProt P03951)
[2] = biological target: human plasma kallikrein (human) (UniProt P03952)
[3] = biological target: rabbit TF-FVIIa in the PT assay (rabbit thromboplastin with rabbit plasma) (rabbit)
[4] = biological target: tissue factor-Factor VIIa complex (human Factor VIIa with recombinant human tissue factor 1-243) (human) (UniProt P08709); experiment: chromogenic enzyme inhibition assay under equilibrium conditions; apparent Ki*
[5] = biological target: tissue factor-Factor VIIa complex (human Factor VIIa with recombinant human tissue factor 1-243) (human) (UniProt P08709); experiment: chromogenic enzyme inhibition assay, FVIIa 10 nM, TF1-243 50 nM; apparent Ki* by fit to the tight-binding equation
[6] = biological target: tissue factor-Factor VIIa complex (human Factor VIIa with recombinant human tissue factor 1-243) (human) (UniProt P08709); experiment: apparent Ki* for TF-FVIIa; method not told at this place

With “APPI, Alzheimer's amyloid β-protein precursor inhibitor” the fold prolongation of clotting time, APTT assay in normal human plasma (fold prolongation at 40 µM inhibitor) [1] was 3.6, the fold prolongation of clotting time, APTT assay in normal human plasma (fold prolongation at 40 µM inhibitor) [2] was 3.6 and the fold increase of clotting time over baseline, PT assay in rabbit plasma (fold increase over baseline at 40 µM) [3] was 1.4. The Ki [4] was 0.301 µM and the Ki [5] was 0.3 µM.

Substance first Kunitz domain of TFPI has a Ki [6] of 0.6 µM.
